T1: human recombinant HMGB1 protein (Homo sapiens, UniProt P09429)
T1 construct: purchased Abcam
T1 sequence (P09429 1-215): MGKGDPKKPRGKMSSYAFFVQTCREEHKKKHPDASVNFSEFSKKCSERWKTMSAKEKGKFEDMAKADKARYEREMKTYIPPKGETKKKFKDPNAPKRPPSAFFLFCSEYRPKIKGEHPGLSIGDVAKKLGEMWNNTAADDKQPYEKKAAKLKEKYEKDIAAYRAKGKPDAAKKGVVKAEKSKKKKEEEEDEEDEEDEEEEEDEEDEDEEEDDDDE


Legend:
U87MG spheroid = test: GBM spheroid growth inhibition; type: cell-based, human; conditions: GL equivalent 50 µM, day 6 (control 294%)
Method: Fig. S8. GBM spheroid growth inhibition of Lf-GL. To form U87MG spheroid, cells were seeded at density of 1X10^5 cells in concave mold (StemFIT 3D; MICROFIT, Korea). After spheroids were formed, they were transferred to 24-well plate coated with 2% agarose gel. The constructed spheroids were treated with conditioned medium at 2 days interval after a washing step with PBS. (a) Morphology of U87MG spheroid treated with Lf-GL of GL equivalent concentration of 50 µM on day 0, 2, 4 and 6, respectively. Scale bar: 200 µm (b) GBM spheroids time-related volume after treated with Lf-GL of GL equivalent concentration of 50 µM. Data were expressed as mean ± S.E.M (n=9). **P <0.01 versus Control.

[1] = target: T1, human recombinant HMGB1 protein; test: SPR binding affinity against HMGB1; conditions: SPR, HMGB1 immobilized; for Ka, association rate constant / Kd, dissociation rate constant: PBS pH 7.4, room temperature
Method: To confirm the binding affinity of Lf-GL to HMGB1, Surface Plasmon Resonance (SPR) was conducted at WoojungBSC (Korea). The Reichert SR7500DC system (Reichert technologies, NA, USA) and Scrubber2 software (Biologic software, FRA) were used, and a CMDH chip (Cat #: 13,206,066, Reichert technologies) was used for immobilization of the human recombinant HMGB1 protein (Abcam). HMGB1 protein was used as a ligand, and the analytes were HMGB1 antibody (Abcam), GL, Lf and Lf-GL conjugate. The immobilization buffer was S.A. (10 × 10^–3 M, pH 4.5), and the running buffer was PBS (pH 7.4). The flow rate of the analyte was 30 μL min^−1. The association and dissociation time were 3 min each, and measurements were conducted at room temperature. Results are expressed in response units (RU) over time.
Fig. S5. Binding affinity against HMGB1. Surface Plasmon Resonance (SPR) was conducted at WoojungBSC (Korea). The Reichert SR7500DC system (Reichert technologies, NA, USA) and Scrubber2 software(Biologic software, FRA) were used and the CMDH chip (Cat #: 13206066, Reichert technologies) was used for immobilization of the human recombinant HMGB1 protein (Abcam). HMGB1 protein was used as ligand and analytes were HMGB1 antibody (Abcam), GL, Lf and Lf-GL conjugate. Immobilization buffer was 10 mM S.A. (pH 4.5) and running buffer was 1× PBS. The flow rate of the analyte was 30 μL min^-1. The association and dissociation time were 3 min each and conducted at room temperature. Results are expressed in response units (RU) over time.

| Molecule | Spheroid volume increase at day 6 compared to day 0 (U87MG spheroid) | KD, equilibrium dissociation constant (KD = Kd Ka^−1) [1] | Ka, association rate constant [1] | Kd, dissociation rate constant [1] |
| --- | --- | --- | --- | --- |
| Lf-GL (1:4): lactoferrin-glycyrrhizin conjugate, ratio 1:4 (conjugate, UniProt P24627 20-708, looked up, glycyrrhizin conjugate 1:4) Lactotransferrin: APRKNVRWCTISQPEWFKCRRWQWRMKKLGAPSITCVRRAFALECIRAIAEKKADAVTLDGGMVFEAGRDPYKLRPVAAEIYGTKESPQTHYYAVAVVKKGSNFQLDQLQGRKSCHTGLGRSAGWIIPMGILRPYLSWTESLEPLQGAVAKFFSASCVPCIDRQAYPNLCQLCKGEGENQCACSSREPYFGYSGAFKCLQDGAGDVAFVKETTVFENLPEKADRDQYELLCLNNSRAPVDAFKECHLAQVPSHAVVARSVDGKEDLIWKLLSKAQEKFGKNKSRSFQLFGSPPGQRDLLFKDSALGFLRIPSKVDSALYLGSRYLTTLKNLRETAEEVKARYTRVVWCAVGPEEQKKCQQWSQQSGQNVTCATASTTDDCIVLVLKGEADALNLDGGYIYTAGKCGLVPVLAENRKSSKHSSLDCVLRPTEGYLAVAVVKKANEGLTWNSLKDKKSCHTAVDRTAGWNIPMGLIVNQTGSCAFDEFFSQSCAPGADPKSRLCALCAGDDQGLDKCVPNSKEKYYGYTGAFRCLAEDVGDVAFVKNDTVWENTNGESTADWAKNLNREDFRLLCLDGTRKPVTEAQSCHLAVAPNHAVVSRSDRAAHVKQVLLHQQALFGKNGKNCPDKFCLFKSETKNLLFNDNTECLAKLGGRPTYEEYLGTEYVTAIANLKKCSTSPLLEACAFLTR | 185% | 595 ± 5 nM | (2.66±0.02)·10^3 M^-1s^-1 | 0.001584 ± 8e-06 s⁻¹ |
| Lf-GL (1:15): lactoferrin-glycyrrhizin conjugate, ratio 1:15 (conjugate, UniProt P24627 20-708, looked up, glycyrrhizin conjugate 1:15) Lactotransferrin: APRKNVRWCTISQPEWFKCRRWQWRMKKLGAPSITCVRRAFALECIRAIAEKKADAVTLDGGMVFEAGRDPYKLRPVAAEIYGTKESPQTHYYAVAVVKKGSNFQLDQLQGRKSCHTGLGRSAGWIIPMGILRPYLSWTESLEPLQGAVAKFFSASCVPCIDRQAYPNLCQLCKGEGENQCACSSREPYFGYSGAFKCLQDGAGDVAFVKETTVFENLPEKADRDQYELLCLNNSRAPVDAFKECHLAQVPSHAVVARSVDGKEDLIWKLLSKAQEKFGKNKSRSFQLFGSPPGQRDLLFKDSALGFLRIPSKVDSALYLGSRYLTTLKNLRETAEEVKARYTRVVWCAVGPEEQKKCQQWSQQSGQNVTCATASTTDDCIVLVLKGEADALNLDGGYIYTAGKCGLVPVLAENRKSSKHSSLDCVLRPTEGYLAVAVVKKANEGLTWNSLKDKKSCHTAVDRTAGWNIPMGLIVNQTGSCAFDEFFSQSCAPGADPKSRLCALCAGDDQGLDKCVPNSKEKYYGYTGAFRCLAEDVGDVAFVKNDTVWENTNGESTADWAKNLNREDFRLLCLDGTRKPVTEAQSCHLAVAPNHAVVSRSDRAAHVKQVLLHQQALFGKNGKNCPDKFCLFKSETKNLLFNDNTECLAKLGGRPTYEEYLGTEYVTAIANLKKCSTSPLLEACAFLTR | 179% | 32.3 ± 0.2 nM | (2.99±0.02)·10^4 M^-1s^-1 | (9.65±0.04)·10^-4 M^-1s^-1 |
